Source: paper PMC9830665

Tests used:
[1] = target: uridine-specific nidoviral endoribonuclease (NendoU) protein from SARS-CoV-2 (SARS-CoV-2); assay: dynamic light scattering
[2] = target: uridine-specific nidoviral endoribonuclease (NendoU) protein from SARS-CoV-2 (SARS-CoV-2); assay: SEC

## uridine-specific nidoviral endoribonuclease (NendoU) protein from SARS-CoV-2 (enzyme)
[1]
  stoichiometry N: 6
[2]
  stoichiometry N: 6
